Reference: patent US20220411483A1 (Chugai, published 2022)
Positions count from the first letter of the chain named.

T1: FcgRIIb (human, UniProt P31994 43-217)
T1 construct: extracellular domain; also called FcγRIIb
T1 sequence (looked up): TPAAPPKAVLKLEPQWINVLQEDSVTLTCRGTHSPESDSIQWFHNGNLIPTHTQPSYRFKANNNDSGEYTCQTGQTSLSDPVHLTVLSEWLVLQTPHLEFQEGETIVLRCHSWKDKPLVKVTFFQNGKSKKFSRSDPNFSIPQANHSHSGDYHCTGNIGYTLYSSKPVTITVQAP

T2: FcgRIIaR (human, UniProt P12318 34-217)
T2 construct: extracellular domain; also called FcγRIIa R type; FcγRIIa (R type)
T2 sequence (looked up): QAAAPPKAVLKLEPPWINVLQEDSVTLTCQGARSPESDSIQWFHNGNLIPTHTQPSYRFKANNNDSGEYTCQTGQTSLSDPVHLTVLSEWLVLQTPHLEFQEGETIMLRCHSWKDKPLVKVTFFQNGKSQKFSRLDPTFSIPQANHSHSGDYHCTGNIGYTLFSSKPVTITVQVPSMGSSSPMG

B1: IL6R-P759/IL6R-L (antibody, human IgG1, kappa)
heavy: QVQLQESGPGLVKPSETLSLTCAVSGHSISHDHAWSWVRQPPGEGLEWIGFISYSGITNYNPSLQGRVTISRDNSKNTLYLQMNSLRAEDTAVYYCARSLARTTAMDYWGEGTLVTVSSASTKGPSVFPLAPSSKSTSGGTAALGCLVKDYFPEPVTVSWNSGALTSGVHTFPAVLQSSGLYSLSSVVTVPSSSLGTQTYICNVNHKPSNTKVDKKVEPKSCDKTHTCPPCPAPDLLGDDSVFLFPPKPKDTLMISRTPEVTCVVVDVSDEDGEVKFNWYVDGVEVHNAKTKPREEQYNSTYRVVSVLTVLHQDWLNGKEYKCKVSNKGLPSSIEKTISKAKGQPREPQVYTLPPSRDELTKNQVSLTCLVKGFYPSDIAVEWESNGQPENNYKTTPPVLDSDGSFFLYSKLTVDKSRWQQGNVFSCSVMHEALHNHYTQKSLSLSP
light: not shown
B2: IL6R-P773/IL6R-L (antibody, human IgG1, kappa)
heavy: B1 heavy with D235E, D239G, S269A, D270E, K324A, G329A, S332A, S333P
light: not shown
B3: IL6R-P770/IL6R-L (antibody, human IgG1, kappa)
heavy: B1 heavy with D235E, D239G, V266I, D270H
light: not shown
B4: IL6R-P784/IL6R-L (antibody, human IgG1, kappa)
heavy: B1 heavy with D270H, G273P
light: not shown
B5: IL6R-P765/IL6R-L (antibody, human IgG1, kappa)
heavy: B1 heavy with D235E, D239G, V266I, S269A, D270H, G329A, S332A, S333P
light: not shown
B6: IL6R-P780/IL6R-L (antibody, human IgG1, kappa)
heavy: B1 heavy with D235E, D239G, V266I, S269A, D270E, K324E, G329A, S332A, S333P
light: not shown
B7: IL6R-P776/IL6R-L (antibody, human IgG1, kappa)
heavy: B1 heavy with D235E, D239G, D270H, K324E, G329A, S332A, S333P
light: not shown
B8: IL6R-P763/IL6R-L (antibody, human IgG1, kappa)
heavy: B1 heavy with D235E, D239G, S269A, D270E, G329A, S332A, S333P
light: not shown
B9: IL6R-P761/IL6R-L (antibody, human IgG1, kappa)
heavy: B1 heavy with D270E
light: not shown
B10: IL6R-P778/IL6R-L (antibody, human IgG1, kappa)
heavy: B1 heavy with D239G, V266I, S269A, D270E, K324E, G329A, S332A, S333P
light: not shown
notes: also called IL6B-P778/IL6R-L
B11: IL6R-P768/IL6R-L (antibody, human IgG1, kappa)
heavy: B1 heavy with D235E, D239G, V266I, S269A, D270H
light: not shown
B12: IL6R-P772/IL6R-L (antibody, human IgG1, kappa)
heavy: B1 heavy with D235E, D239G, V266I, D270H, K324E, G329A, S332A, S333P
light: not shown
B13: IL6R-P764/IL6R-L (antibody, human IgG1, kappa)
heavy: B1 heavy with D235E, D239G, V266I, D270E, G329A, S332A, S333P
light: not shown
B14: IL6R-P762/IL6R-L (antibody, human IgG1, kappa)
heavy: B1 heavy with D235E, D239G, D270H
light: not shown
B15: IL6R-P767/IL6R-L (antibody, human IgG1, kappa)
heavy: B1 heavy with D235E, D239G, V266I, D270E
light: not shown
B16: IL6R-P775/IL6R-L (antibody, human IgG1, kappa)
heavy: B1 heavy with D235E, D239G, D270H, K324A, G329A, S332A, S333P
light: not shown
B17: IL6R-P769/IL6R-L (antibody, human IgG1, kappa)
heavy: B1 heavy with D235E, D239G, V266I, D270H, G329A, S332A, S333P
light: not shown
B18: IL6R-P760/IL6R-L (antibody, human IgG1, kappa)
heavy: B1 heavy with D235E, D270E
light: not shown
B19: IL6R-P766/IL6R-L (antibody, human IgG1, kappa)
heavy: B1 heavy with D235E, D239G, S269A, D270E
light: not shown
B20: IL6R-P771/IL6R-L (antibody, human IgG1, kappa)
heavy: B1 heavy with D235E, D239G, V266I, D270H, K324A, G329A, S332A, S333P
light: not shown
B21: IL6R-P777/IL6R-L (antibody, human IgG1, kappa)
heavy: B1 heavy with D239G, V266I, S269A, D270E, K324A, G329A, S332A, S333P
light: not shown
B22: IL6R-P782/IL6R-L (antibody, human IgG1, kappa)
heavy: B1 heavy with D239G, D270H, G273P
light: not shown
B23: IL6R-P785/IL6R-L (antibody, human IgG1, kappa)
heavy: B1 heavy with D239G, D270H, G273P, S300A
light: not shown
B24: IL6R-P783/IL6R-L (antibody, human IgG1, kappa)
heavy: B1 heavy with D235E, D270H, G273P
light: not shown
B25: IL6R-P781/IL6R-L (antibody, human IgG1, kappa)
heavy: B1 heavy with D235E, D239G, D270H, G273P, S300A
light: not shown
B26: IL6R-P779/IL6R-L (antibody, human IgG1, kappa)
heavy: B1 heavy with D235E, D239G, V266I, S269A, D270E, K324A, G329A, S332A, S333P
light: not shown
B27: IL6R-P774/IL6R-L (antibody, human IgG1, kappa)
heavy: B1 heavy with D235E, D239G, S269A, D270E, K324E, G329A, S332A, S333P
light: not shown

Target: T3, human complement C1q (human, UniProt P02745 23-245; P02746 28-253; P02747 29-245)
T3 construct: Bought (PROSPEC or Calbiochem); also called human C1q
Test: SPR, C1q bound per antibody captured on Protein L
Experimental: The interaction between an antibody and human C1q was analyzed using Biacore T200 (GE Healthcare). HBS-EP+ (GE Healthcare) was used as the running buffer, and the measurement temperature was set at 25° C. Chips produced by immobilizing Protein L (ACTIGEN or BioVision) onto Series S sensor Chip CM4 (GE Healthcare) by amine coupling were used.
The antibodies of interest were captured onto these sensor chips, and allowed to interact with human complement C1q (PROSPEC or Calbiochem) diluted in the running buffer. The amount of antibody binding was determined, and comparisons were made among the antibodies. However, since the amount of C1q bound depends on the amount of captured antibodies, corrected values obtained by dividing the amount of C1q bound by the amount of each antibody captured were compared. Furthermore, by reaction with 10 mM glycine-HCl, pH 1.5, the antibodies captured onto the sensor chips were washed, and the sensor chips were recycled and reused.

T3 sequence (P02745 23-245 limits assumed, chain 1 of 3): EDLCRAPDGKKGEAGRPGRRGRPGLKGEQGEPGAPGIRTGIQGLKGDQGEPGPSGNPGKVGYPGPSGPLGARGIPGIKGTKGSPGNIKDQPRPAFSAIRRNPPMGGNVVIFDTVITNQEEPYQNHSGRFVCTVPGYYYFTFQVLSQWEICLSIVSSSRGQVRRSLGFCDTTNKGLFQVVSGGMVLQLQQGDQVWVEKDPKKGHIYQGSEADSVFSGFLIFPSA
T3 sequence (P02746 28-253 limits assumed, chain 2 of 3): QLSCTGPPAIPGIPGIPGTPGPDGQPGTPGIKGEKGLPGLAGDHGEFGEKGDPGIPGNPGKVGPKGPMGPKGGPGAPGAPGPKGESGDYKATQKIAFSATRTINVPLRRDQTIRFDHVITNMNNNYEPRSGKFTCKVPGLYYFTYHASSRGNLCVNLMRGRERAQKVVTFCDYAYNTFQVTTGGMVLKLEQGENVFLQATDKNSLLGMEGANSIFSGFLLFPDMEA
T3 sequence (P02747 29-245 limits assumed, chain 3 of 3): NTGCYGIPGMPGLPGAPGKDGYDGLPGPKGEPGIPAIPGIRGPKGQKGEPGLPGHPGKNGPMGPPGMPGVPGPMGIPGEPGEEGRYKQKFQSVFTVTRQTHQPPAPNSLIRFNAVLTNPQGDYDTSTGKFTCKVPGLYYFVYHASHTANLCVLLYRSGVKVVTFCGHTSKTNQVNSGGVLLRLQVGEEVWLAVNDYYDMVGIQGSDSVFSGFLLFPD

Binder | Amount of C1q-binding when that for G1d is Defined as 100 [G1d=100]
B1 | 14.5
B2 | 1.7
B3 | 1.5
B4 | 24.2
B5 | 46.6
B6 | 12.9
B7 | 0.7
B8 | 41.7
B9 | 2.1
B10 | 23.9
B11 | 14
B12 | 21.6
B13 | 23.1
B14 | 14.6
B15 | 1.7
B16 | 21.8
B17 | 31.3
B18 | 21.7
B19 | 21.8
B20 | 14.3
B21 | 12.4
B22 | 1.3
B23 | 1.3
B24 | 13.3
B25 | 24
B26 | 0.8
B27 | 15.2

Target: T1, FcgRIIb
Test: SPR, amount bound per captured antibody

Binder | Relative FcgRIIb-binding Activity [IL6R-G1d/IL6R-L=100]
B1 | 305
B2 | 192
B3 | 188
B4 | 118
B5 | 340
B6 | 200
B7 | 190
B8 | 332
B9 | 320
B10 | 198
B11 | 305
B12 | 196
B13 | 329
B14 | 252
B15 | 318
B16 | 180
B17 | 196
B18 | 304
B19 | 286
B20 | 195
B21 | 198
B22 | 95.1
B23 | 58.4
B24 | 97.9
B25 | 51.1
B26 | 201
B27 | 200

Target: T2, FcgRIIaR
Test: SPR, amount bound per captured antibody

Binder | Relative FcgRIIaR-binding Activity [IL6R-G1d/IL6R-L=100]
B1 | 96.5
B2 | 87.3
B3 | 78.2
B4 | 28.6
B5 | 93.2
B6 | 101
B7 | 77.4
B8 | 101
B9 | 103
B10 | 105
B11 | 80.9
B12 | 84.3
B13 | 89.5
B14 | 75.8
B15 | 84.2
B16 | 64.2
B17 | 86.7
B18 | 97.1
B19 | 88.1
B20 | 75.8
B21 | 97.5
B22 | 14.2
B23 | 9.1
B24 | 20.5
B25 | 7.8
B26 | 96
B27 | 98.8
